From article PMC7210950 (2020)
Square brackets hold non-standard residues; d marks the D form. Ends that are not written are not given here. pY = N[C@@H](Cc1ccc(OP(=O)(O)O)cc1)C(=O)O

Assays:
Experiment in all cases: FP
[1] = molecular target: Btk SH2 domain R372G (XLA mutation) (human, UniProt Q06187 271-383, R372G)
[2] = molecular target: Btk SH2 domain S371P (XLA mutation) (human, UniProt Q06187 271-383, S371P)
[3] = molecular target: Btk SH2 domain K296E (XLA mutation) (human, UniProt Q06187 271-383, K296E)
[4] = molecular target: Btk SH2 domain, wild-type (recombinant) (human, UniProt Q06187 271-383)
[5] = molecular target: Btk SH2 domain K374N (XLA mutation) (human, UniProt Q06187 271-383, K374N)
[6] = molecular target: Btk SH2 domain H364D (XLA mutation) (human, UniProt Q06187 271-383, H364D)
Sequence of Btk SH2 domain H364D (XLA mutation) (Q06187 271-383 H364D): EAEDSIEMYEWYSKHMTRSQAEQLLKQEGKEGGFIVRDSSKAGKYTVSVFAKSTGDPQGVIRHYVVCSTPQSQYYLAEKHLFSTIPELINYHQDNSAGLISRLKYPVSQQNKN

Sequence of Btk SH2 domain S371P (XLA mutation) (Q06187 271-383 S371P): as the sequence (Q06187 271-383 H364D) above, with D94H, S101P counted along it
Sequence of Btk SH2 domain K374N (XLA mutation) (Q06187 271-383 K374N): as the sequence (Q06187 271-383 H364D) above, with D94H, K104N counted along it
Sequence of Btk SH2 domain R372G (XLA mutation) (Q06187 271-383 R372G): as the sequence (Q06187 271-383 H364D) above, with D94H, R102G counted along it
Sequence of Btk SH2 domain K296E (XLA mutation) (Q06187 271-383 K296E): as the sequence (Q06187 271-383 H364D) above, with K26E, D94H counted along it
Sequence of Btk SH2 domain, wild-type (recombinant) (Q06187 271-383): as the sequence (Q06187 271-383 H364D) above, with D94H counted along it

**Q.** Which Kd [1] does the source give for ADND[pY]IIPLPD (also: FITC label, end not given here) [FITC-labeled pY-peptide (ADNDpYIIPLPD)] here?
**A.** The Kd was 5.8 µM.

**Q.** And the Kd [2]?
**A.** Its Kd is 5.7 µM.

**Q.** What about the Kd [3] of the same binder?
**A.** Its Kd is 21.8 µM.

**Q.** What about the Kd [4] of the same binder?
**A.** The Kd was 7.1 µM.

**Q.** And the Kd [5]?
**A.** Its Kd is 8.7 µM.

**Q.** And the Kd [6]?
**A.** The Kd was 6.9 µM.
